From patent publication US9394352B2, “Immunogenic POTE peptides and methods of use” (The United States of America, as represented by the …, priority 2010, dated 2016)

Molecular target: T1, HLA-A2 molecule (Homo sapiens, UniProt P04439, D140Y/D185E/D98H/E176V/E277Q/G131W/G231S/I119V/I121R/I166T/I218V/L300P/L318F/N151K/N90K/P208A/P217A/Q86G/Q94H/R138H/R169H/T345S)
T1 construct: The T2 cell line is deficient for TAP1 and TAP2 transporter proteins and expresses low levels of HLA-A2; endogenous in cells; host or cells: T2 cell line (TAP1/TAP2-deficient)
Assay: T2 binding assay (HLA-A2 up-regulation on TAP-deficient T2 cells)
Conditions: for FI0.5: peptide concentration that increases HLA-A2.1 expression by 50% over no peptide
Experimental: FIG. 1 is a graph showing binding affinity of POTE peptides to HLA-A2 molecules. Peptides were dissolved in DMSO in double-distilled water and different concentrations of peptides were added into the culture of TAP-deficient T2 cells. After overnight culture of the cells in medium supplemented with β2-microglobulin, cells were stained with anti-HLA-A2. HLA-A2 expression was quantified as fluorescence index (FI) according to the following formula: FI=[(mean fluorescence intensity with peptide−mean fluorescence intensity without peptide)/mean fluorescence intensity without peptide]. Background fluorescence without BB7.2 was subtracted for each individual value. To compare the different peptides, FI0.5 (the peptide concentration that increases HLA-A2.1 expression by 50% over no peptide control background) was calculated from the titration curve for each peptide.
FIGS. 2A-2C are graphs showing binding affinity of substituted POTE peptides to HLA-A2 molecules. Shown are binding affinities of the substituted POTE 252 peptides (FIG. 2A), the substituted POTE 553 peptides (FIG. 2B) and the substituted POTE 323 peptides (FIG. 2C) to HLA-A2 molecules. Different concentrations of peptides were added into the culture of TAP-deficient T2 cells. After overnight culture of the cells in medium supplemented with β2-microglobulin, cells were stained with anti-HLA-A2 antibody.
Peptide binding capacity to the HLA-A2 molecule was measured by using the T2 cell line according to a protocol described previously (Peters et al., Bioinformatics 19(14):1765-1772, 2003). T2 cells (3×10^5 cells/well) were incubated overnight in 96-well plates with culture medium (1:1 mixture of RPMI 1640/Eagle-Hank's amino acid containing 2.5% fetal bovine serum, 100 U/ml penicillin, and 100 μg/ml streptomycin) with 10 μg/ml β2-microglobulin (Sigma) and different titrated concentrations of peptides (starting from 100 μM with 2-fold serial dilution) as shown in the figures to determine the concentration giving a 50% increasing in binding. Cells were washed once with cold HBSS containing 0.1% BSA and incubated for 30 minutes at 4° C. with anti-HLA-A2.1 BB7.2 monoclonal antibody (1:40 dilution from hybridoma supernatant). After washing, cells were stained with FITC-labeled goat anti-mouse immunoglobulin (BD, San Jose, Calif.), and the level of HLA expression was measured by flow cytometry. HLA-A2 expression was quantified as fluorescence index (FI) according to the following formula: FI=[(geometric mean fluorescence intensity with peptide-geometric mean fluorescence intensity without peptide)/geometric mean fluorescence intensity without peptide]. Background fluorescence without BB7.2 was subtracted for each individual value. To compare the different peptides, FI0.5, the peptide concentration that increases HLA-A2.1 expression by 50% over no peptide control background, was calculated from the titration curve for each peptide.

For “KLMAKALLL [POTE 252-260, unmodified 9-mer peptide, residues 252-260 of human POTE]”, which “binding affinity for the HLA-A2 molecule (in words)” value (T2 binding assay) is on record?
Its value is “intermediate binders”.

And the FI0.5 (substituted peptides and their wild types, Table 2 / FIGS. 2A-2C)?
Its FI0.5 is 1.5 µM.

What about the FI0.5 (wild-type peptides, Table 1 / FIG. 1) of the same sequence?
The FI0.5 was roughly 1.6 µM.
